These results are taken from patent US8034783B2, “Prodomain modulators of ADAM 10” (Biozyme, Inc., priority 2006, dated 2011).

The target in assay [1] is T1, ADAM 10 (human) Cat/Dis (Homo sapiens, UniProt O14672).
T1 construct: containing the catalytic/disintegrin domains; purchased R & D Systems (Minneapolis, Minn., USA)
T1 sequence (O14672 214-672 limits assumed): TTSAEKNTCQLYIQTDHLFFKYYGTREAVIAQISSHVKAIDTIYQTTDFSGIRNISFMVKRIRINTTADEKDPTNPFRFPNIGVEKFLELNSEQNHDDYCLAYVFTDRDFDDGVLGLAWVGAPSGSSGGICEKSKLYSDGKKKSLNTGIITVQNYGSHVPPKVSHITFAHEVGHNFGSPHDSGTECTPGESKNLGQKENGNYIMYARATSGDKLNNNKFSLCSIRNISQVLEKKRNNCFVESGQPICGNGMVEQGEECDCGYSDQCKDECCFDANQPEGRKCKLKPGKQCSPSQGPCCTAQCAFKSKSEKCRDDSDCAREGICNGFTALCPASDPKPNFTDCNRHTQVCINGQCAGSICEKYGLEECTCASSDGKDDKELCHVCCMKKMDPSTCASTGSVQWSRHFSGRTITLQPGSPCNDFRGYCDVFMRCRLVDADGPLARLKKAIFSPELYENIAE
In words: Inhibition assay with ADAM10 catalytic/disintegrin construct, fluorescent substrate. The format is biochemical. The method, then:
(§1) Inhibition assays with TACE and ADAM 10. Activity of TACE catalytic/disintegrin, TACE catalytic, or ADAM10 catalytic/disintegrin constructs was monitored at 3 minute intervals using the fluorescent substrate, Dabcyl-LAQAHomoPheRSC(Fluorescein)-NH2 (SEQ ID NO 17) with excitation 485 nm and emission 530 nm. The substrate was diluted from a 10 mM stock in DMSO to 10 μM in assay buffer containing 20 mM Tris, pH 8.0, and 0.0006% Brij-35. Reactions were run in a 96-well black-coated plate with either ADAM10 prodomain (10 nM-1.0 μM) alone or with enzyme. Concentrations of enzyme ranged from 0.5-2.0 nM for TACE and 5-15 nM for ADAM10. For assays with TACE and ADAM8 prodomain, the range of concentrations varied from 1-4.7 μM.
(§2) Calculation of inhibition constants. The amount of activity was calculated by subtracting the ADAM 10 prodomain control from the ADAM 10 prodomain with enzyme. All inhibition assays were performed at room temperature and the data fit to the following equation using Sigma Plot software:
(§3) [formula] where If is fractional inhibition, I is the inhibitor concentration and Ki is the inhibition constant.
Wild type ADAM 10 prodomain (23-213) was tested to determine the mode of inhibition of ADAM 10 protein. ADAM 10 protein was diluted 1:100 in buffer 25 mM Tris pH 8, 0.0006% Brij-35 and then 10 μl was added to 88 μl of substrate (20-100 μM), Dabcyl-LAQAHomoPheRSC(Fluorescein)-NH2 with excitation 485 nm and emission 530 nm. Prodomain, 2 μl, in 25 mM Tris, pH 8, 100 mM NaCl, 10% glycerol, 0.1% mercaptoethanol, and 50 μM CaCl2 was added to substrate before addition of enzyme. The final concentration of prodomain ranged from 17-170 nM. The fluorescence vs time was plotted, and slopes were taken from straight line fits of initial velocities. The reciprocal of the velocities was plotted vs the reciprocal of substrate squared since the normal Lineweaver Burke plot gave curved lines. The initial velocities vs substrate concentrations were fit as a family of curves to several allosteric models.

In assay [2] the target is T2, TACE (human) Cat (Homo sapiens, UniProt P78536).
T2 construct: TACE catalytic domain, Marcos Milla, University of Pennsylvania; donated by Marcos Milla, University of Pennsylvania
T2 sequence (P78536 223-474 limits assumed): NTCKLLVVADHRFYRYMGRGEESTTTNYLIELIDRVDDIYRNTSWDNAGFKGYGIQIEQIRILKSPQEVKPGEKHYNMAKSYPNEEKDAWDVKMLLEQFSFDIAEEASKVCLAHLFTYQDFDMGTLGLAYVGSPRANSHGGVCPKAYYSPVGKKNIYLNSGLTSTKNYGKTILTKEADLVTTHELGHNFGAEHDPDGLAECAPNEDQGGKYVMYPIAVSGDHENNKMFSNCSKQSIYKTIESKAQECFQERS
In words: Inhibition assay with TACE catalytic domain, fluorescent substrate. The format is biochemical. Conditions: at 3.5 μM. The method, then: as §1, §2, §3

Assay [3] addresses T3, ADAM 8 (mouse) catalytic domain (Mus musculus, UniProt Q05910).
T3 construct: The ADAM 8 catalytic domain was expressed and purified from E. coli as described (22); made in house; host or cells: E. coli
T3 sequence (Q05910 196-395 limits assumed): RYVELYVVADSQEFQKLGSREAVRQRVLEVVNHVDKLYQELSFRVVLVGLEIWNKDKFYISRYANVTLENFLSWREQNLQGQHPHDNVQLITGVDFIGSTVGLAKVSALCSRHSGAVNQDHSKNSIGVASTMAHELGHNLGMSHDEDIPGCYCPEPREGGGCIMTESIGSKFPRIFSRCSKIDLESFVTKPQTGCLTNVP
Kind of assay: Inhibition assay with ADAM 8 catalytic domain. It counts as biochemical. Particulars: at 1.7 μM. The method, then: Inhibition assays with ADAM 8. The ADAM 8 catalytic domain was expressed and purified from E. coli as described (22). A substrate based on the L-selectin cleavage site, Dnp-INorIeuQKLDKSFSMIKE-NH2 (SEQ ID NO 20), was used to monitor enzyme activity with a fluorescamine assay. From a concentrated 50 mM solution in DMSO, the substrate was diluted 1:500 in 25 mM HEPES, pH 8.0, 0.0006% Brij-35. To 100 μl of diluted substrate was added either 5 μl of buffer (Tris, pH 8.0, 150 mM KCl) or 5 μl of ADAM10 prodomain (1-10 μM). Zero time points were taken by diluting 12.5 μl of the reaction mixture into 100 μl of fluorescamine buffer (50 mM HEPES, pH 8.0, 0.2 M NaCl, 0.01 M CaCl2, 0.01% Brij-35) in a 96-well black-coated plate. Before measuring fluorescence, 3 μl of a 1% solution of fluorescamine in DMSO was added to each well. The plate was allowed to incubate for 10 min in the dark before measuring fluorescence (excitation wavelength at 390 nm, emission wavelength at 485 nm). For assays with TACE and ADAM8 prodomains, a fluorescent substrate was used to monitor activity at concentrations of prodomains ranging from 1-4.7 μM.
Calculation of inhibition constants. The amount of activity was calculated by subtracting the ADAM 10 prodomain control from the ADAM 10 prodomain with enzyme. […]

Assay [4] deals with T4, TACE (human) Cat/Dis (Homo sapiens, UniProt P78536).
T4 construct: containing the catalytic/disintegrin domains; purchased R & D Systems (Minneapolis, Minn., USA)
T4 sequence (P78536 215-671 limits assumed): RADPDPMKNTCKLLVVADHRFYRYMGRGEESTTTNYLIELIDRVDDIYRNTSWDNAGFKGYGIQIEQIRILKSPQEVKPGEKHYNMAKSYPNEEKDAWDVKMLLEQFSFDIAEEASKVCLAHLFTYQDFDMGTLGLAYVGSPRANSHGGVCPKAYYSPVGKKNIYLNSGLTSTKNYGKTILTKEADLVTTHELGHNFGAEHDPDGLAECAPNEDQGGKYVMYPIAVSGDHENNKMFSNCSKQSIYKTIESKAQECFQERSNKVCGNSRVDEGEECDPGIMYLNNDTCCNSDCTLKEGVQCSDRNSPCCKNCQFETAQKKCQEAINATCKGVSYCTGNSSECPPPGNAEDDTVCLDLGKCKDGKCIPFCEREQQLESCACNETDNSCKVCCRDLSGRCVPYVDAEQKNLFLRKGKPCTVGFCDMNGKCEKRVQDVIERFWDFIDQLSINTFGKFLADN
Kind of assay: Inhibition assay with TACE catalytic/disintegrin construct, fluorescent substrate. The format is biochemical. As for the experimental part: as §1, §2, §3

Assay [5] has as its system MMP 1, 2, 3, 9, 13, 14. In words: Inhibition assays with MMPs. The format is biochemical. Conditions: 3 μM prodomain. As for the experimental part:
Inhibition assays with MMPs. The fluorescent substrate Dabcyl-GPLGMRGC (Fluorescein)-NH2 (SEQ ID NO 18) (10 μM) in assay buffer containing 50 mM Tris, pH 7.5, 150 mM NaCl, 2 mM CaCl2, 5 μM ZnSO4, and 0.01% Brij-35 was used to monitor enzyme activities. MMPs 1, 2, 3, 9, 13, and 14 (0.1-20 nM) were incubated with substrate in the absence or presence of prodomain (3-30 μM). Fluorescence intensities were measured every 3-5 minutes at an emission wavelength of 530 nm (excitation 485 nm).
as §2, §3

The subject of assay [6] is CD23 shedding in B cells. Kind of assay: CD23 shedding in B cells, flow cytometry. The format is cell-based. Conditions: 1-5 μM, 12 hr. As for the experimental part:
The CD23 sheddase activity of ADAM 10 protein was further tested in a B-cell assay. B-cells were cultured for 12 hr in the presence or absence of IL-4 (100 ng/ml), wild type C-terminal His tagged ADAM 10 (23-213) (1-5 μM) or match diluent control (25 mM Tris-HCl pH 8, 100 mM NaCl, 10% glycerol, 0.1% β-mercaptoethanol). Cells were stained for expression of surface antigens following washing with 1% BSA/PBS. Cells were incubated for 30 minutes at 4° C. in the dark with fluorochrome-conjugated mAbs: APC-CD19 (CALTAG, Burlingame, Calif.), CD23-PE, mlgG1-PE (BD Biosciences) before washing to remove unbound mAb. Cells were resuspended in PBS and immediately analyzed with the use of the FACS Calibur (BD Biosciences). The software program FlowJo (Ashland, Oreg.) was used to analyze data generated by flow cytometry.
For orientation: In flow cytometry, cells or beads pass a laser one at a time.

Non-standard residues stand in square brackets, D forms with d. Primed or numbered codes have the meaning given here. *: point of attachment. Fluorescein = fluorescein label attached to the cysteine side chain; Dabcyl′ = CN(C)c1ccc(/N=N/c2ccc(C(=O)*)cc2)cc1; hPhe = N[C@@H](CCc1ccccc1)C(=O)O

As for “Dabcyl-LAQAHomoPheRSC(Fluorescein)-NH2 ({Dabcyl′}-LAQA[hPhe]RSC(Fluorescein)-NH2) [fluorescent substrate for TACE and ADAM10 assays, reference compound]”, the “binding constant, Ks for substrate” value in assay [1] (fit to pure competitive allosteric model) stood at 16 ± 4.6 µM.

B1: Pro ADAM 17 (mouse): prodomain of mouse TACE (ADAM 17), residues 18-214, His-tagged, expressed in E. coli (protein)
chain: PRPPEEAGSGSHPRLEKLDSLLSDYDILSLANIQQHSIRKRDLQSATHLETLLTFSALKRHFKLYLTSSTERFSQNLRVVVVDGKEESEYSVKWQNFFSGHVVGEPDSRVLAHIGDDDVTVRINTDGAEYNVEPLWRFVNDTKDKRMLVYKSEDIKDFSRLQSPKVCGYLNADSEELLPKGLIDREPSEEFVRRVKR
modifications: left off: small tags and cut ends
notes: prodomain of mouse TACE (ADAM 17), residues 18-214, His-tagged, expressed in E. coli
On to B1, for which, in assay [1] (at 3.5 μM), the “inhibition of ADAM 10 (human) Cat/Dis” value came out at 11% at 3.5 μM. For the same molecule, the “inhibition of TACE (human) Cat” value in assay [2] amounted to 37%. The “inhibition of ADAM 8 (mouse) Cat” value in assay [3] is reported as 17% at 1.7 μM. In addition, the “inhibition of TACE (human) Cat/Dis” value in assay [4] (at 3.5 μM) is 0%. Further, the “inhibition of respective enzyme (TACE) by its prodomain” value in assay [4] (micromolar concentrations) is listed as “did not inhibit”.

B2: wt ProADAM 10 23-213 (C-terminal His tag): wild type mouse ADAM 10 prodomain, amino acids 23-213, C-terminal His tag, expressed in E. coli (protein)
chain: NPLNKYIRHYEGLSYNVDSLHQKHQRAKRAVSHEDQFLLLDFHAHGRQFNLRMKRDTSLFSDEFKVETSNKVPDYDTSHIYTGHIYGEEGSFSHGSVIDGRFEGFIKTRGGTFYIEPAERYIKDRILPFHSVIYHEDDINYPHKYGPQGGCADHSVFERMRKYQMTGVEEGARAHPEKHAASSGPELLRKKHHHHHH
With B2, in assay [1] (initial velocities fit to allosteric models), the “mode of inhibition of ADAM 10 protein” value is “pure competitive”. For the same molecule, in assay [5], the “inhibition of matrix metalloproteinases 1, 2, 3, 9, 13 and 14” value is “not inhibited”. Besides, the “inhibition of shedding in B cells stimulated with IL-4” value in assay [6] (IL-4 100 ng/ml, FIG. 2D) is given as “able to inhibit shedding”. In addition, the “inhibition of shedding in B cells” value in assay [6] (without IL-4, FIG. 2C) is “able to inhibit shedding”.

B3: wt ProADAM 10 23-213 (N-terminal His tag): wild type mouse ADAM 10 prodomain, amino acids 23-213, N-terminal His tag, expressed in E. coli (protein)
chain: NPLNKYIRHYEGLSYNVDSLHQKHQRAKRAVSHEDQFLLLDFHAHGRQFNLRMKRDTSLFSDEFKVETSNKVPDYDTSHIYTGHIYGEEGSFSHGSVIDGRFEGFIKTRGGTFYIEPAERYIKDRILPFHSVIYHEDDINYPHKYGPQGGCADHSVFERMRKYQMTGVEEGARAHPEKHAASSGPELLRKK
modifications: left off: small tags and cut ends
notes: wild type mouse ADAM 10 prodomain, amino acids 23-213, N-terminal His tag, expressed in E. coli
Take B3: the “inhibition of matrix metalloproteinases 1, 2, 3, 9, 13 and 14” value in assay [5] is “not inhibited”.
